Test results as given in paper PMC8477213.
Numbering of substitutions follows the chain as printed. Where two headings read alike, the source gives them in different places.

Key:
[1] = biological target: T1, Tnp26 Y54A (IS26 (bacterial insertion sequence; …, UniProt A0A2K9V0L7 1-234, Y54A;G117R); assay: MST
T1 sequence: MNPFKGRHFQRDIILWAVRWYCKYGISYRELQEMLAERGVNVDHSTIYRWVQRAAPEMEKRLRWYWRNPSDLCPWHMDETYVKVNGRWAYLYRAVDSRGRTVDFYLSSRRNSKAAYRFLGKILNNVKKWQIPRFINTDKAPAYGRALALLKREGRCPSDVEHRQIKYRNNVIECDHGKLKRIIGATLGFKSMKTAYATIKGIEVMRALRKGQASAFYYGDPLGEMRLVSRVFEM

[2] = biological target: T2, Tnp26 W50A (IS26 (bacterial insertion sequence; …, UniProt A0A2K9V0L7 1-234, W50A;G117R); assay: EMSA
T2 sequence: T1 sequence with W50A, A54Y

[3] = biological target: T3, Tnp26 F4A (IS26 (bacterial insertion sequence; …, UniProt A0A2K9V0L7 1-234, F4A;G117R); assay: EMSA
T3 sequence: T1 sequence with F4A, A54Y

[4] = biological target: T4, Tnp26 R49A (IS26 (bacterial insertion sequence; …, UniProt A0A2K9V0L7 1-234, R49A;G117R); assay: EMSA
T4 sequence: T1 sequence with R49A, A54Y

[5] = biological target: T5, Tnp26 F9A (IS26 (bacterial insertion sequence; …, UniProt A0A2K9V0L7 1-234, F9A;G117R); assay: EMSA
T5 sequence: T1 sequence with F9A, A54Y

[6] = biological target: T6, Tnp26 1-56 (IS26 (bacterial insertion sequence; …, UniProt A0A2K9V0L7 1-56); assay: EMSA
T6 sequence: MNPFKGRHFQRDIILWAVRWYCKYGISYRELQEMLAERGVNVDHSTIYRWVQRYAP

[7] = biological target: T7, Tnp26 WT (IS26 (bacterial insertion sequence; …, UniProt A0A2K9V0L7 1-234, G117R); assay: EMSA
T7 sequence: T1 sequence with A54Y

[8] = biological target: T7, Tnp26 WT; assay: MST
[9] = biological target: T6, Tnp26 1-56; assay: EMSA; remark: listed apart in the source
[10] = biological target: T7, Tnp26 WT; assay: EMSA; remark: listed apart in the source

B1: TIRL 50mer (dsDNA)
DNA 1: TCAGATCGATGGCACTGTTGCAAATAGTCGGTGGTGATAAACTTATCATC
DNA 2: GATGATAAGTTTATCACCACCGACTATTTGCAACAGTGCCATCGATCTGA
B1 was tested, and the Kd [1] was 802 nM, the binding result [2] was “no binding” and the binding result [3] was “no binding”. B1: no binding [4]; no binding [5].

B2: Scrambled TIRR (dsDNA)
DNA 1: TTCGTGACTACATCGATCTAGGCTAGCTAGTCAGCTGATCGACTAGCGAT
DNA 2: ATCGCTAGTCGATCAGCTGACTAGCTAGCCTAGATCGATGTAGTCACGAA
B2: no binding [6]; no binding [7]; no binding [2]. B2: no binding [3]; no binding [4]; no binding [5].

B3: TIRR 50mer (dsDNA)
DNA 1: TCAGATCGATGGCACTGTTGCAAAGTTAGCGATGAGGCAGCCTTTTGTCT
DNA 2: AGACAAAAGGCTGCCTCATCGCTAACTTTGCAACAGTGCCATCGATCTGA
With B3 the Kd [8] was 394 nM, the binding result [2] was “no binding” and the binding result [3] was “no binding”. B3: no binding [4]; no binding [5].

B4: TIRR 1G>T 2G>T (dsDNA)
DNA 1: B3 DNA 1 with G11T, G12T
DNA 2: B3 DNA 2 with C39A, C40A
With B4 the Kd [8] was 240 nM.

B5: TIRR 7G>T (dsDNA)
DNA 1: B3 DNA 1 with G17T
DNA 2: B3 DNA 2 with C34A
B5: no binding [9]; no binding [7].

B6: TIRR 10G>T (dsDNA)
DNA 1: B3 DNA 1 with G20T
DNA 2: B3 DNA 2 with C31A
In the case of B6, the Kd [8] is reported as 872 nM.

B7: TIRR 25mer (dsDNA)
DNA 1: TCAGATCGATGGCACTGTTGCAAAG
DNA 2: CTTTGCAACAGTGCCATCGATCTGA
B7: no binding [10].
